The values below come from patent US20060121465A1, “Sgk and nedd used as diagnostic and therapeutic targets” (priority 2002, published 2006).

Numbering of substitutions follows the chain as printed.

The assay has as its target T1, Sglt1 (Homo sapiens, UniProt P13866).
T1 construct: expressed in transfected cells; host or cells: Xenopus laevis oocytes injected with in vitro synthesized cRNA
T1 sequence (P13866 1-664): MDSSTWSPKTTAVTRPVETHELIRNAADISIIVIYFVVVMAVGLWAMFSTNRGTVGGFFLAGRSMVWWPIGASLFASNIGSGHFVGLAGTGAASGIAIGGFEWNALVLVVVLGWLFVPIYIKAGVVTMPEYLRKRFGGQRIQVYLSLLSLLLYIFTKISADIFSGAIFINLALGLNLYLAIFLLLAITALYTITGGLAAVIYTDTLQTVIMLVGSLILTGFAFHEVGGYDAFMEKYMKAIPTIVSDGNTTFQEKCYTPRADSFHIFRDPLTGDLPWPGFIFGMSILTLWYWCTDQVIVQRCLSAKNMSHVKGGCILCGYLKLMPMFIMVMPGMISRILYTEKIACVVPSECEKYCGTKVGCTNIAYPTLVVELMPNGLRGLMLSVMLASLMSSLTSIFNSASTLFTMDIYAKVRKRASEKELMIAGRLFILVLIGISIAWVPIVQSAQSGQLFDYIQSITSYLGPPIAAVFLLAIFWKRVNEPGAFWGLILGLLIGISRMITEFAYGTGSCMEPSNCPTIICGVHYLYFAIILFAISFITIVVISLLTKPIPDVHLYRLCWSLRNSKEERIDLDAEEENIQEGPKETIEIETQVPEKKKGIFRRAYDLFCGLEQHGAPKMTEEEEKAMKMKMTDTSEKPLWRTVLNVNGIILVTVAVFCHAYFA
The assay can be described thus: Two-electrode voltage clamp of glucose-induced currents in Xenopus laevis oocytes expressing Sglt1. The note with it: for stimulation of glucose transport by additional coexpression: further series of experiments (FIG. 5); for effect on currents induced by glucose (in words): oocytes expressing Sglt1. It is filed as cell-based. From the text: cRNAs encoding wild-type Sgk1 [Waldegger S, Barth P, Raber G, Lang F: Cloning and characterization of a putative human serine/threonine protein kinase transcriptionally modified during anisotonic and isotonic alterations of cell volume. […] Biochem J. 1999; 339: 319-28], wild-type Sgk3 and PKB [Kobayashi T, Deak M, Morrice N, Cohen P. Characterization of the structure and regulation of two novel isoforms of serum- and glucocorticoid-induced protein kinase. Biochem J. 1999; 334: 189-97], consitutively active ^T308D,S473DPKB [Alessi D R, Cohen P. Mechanism of activation and function of protein kinase B. Curr. Opin Genet Dev. 1998; 8: 55-62], wild-type Nedd4-2 [Debonneville C, Flores S Y, Kamynina E, Plant P J, Tauxe C, Thomas M A, Munster C, Chraibi A, Pratt J H, Horisberger J D, Pearce D, Loffing J, Staub O. Phosphorylation of Nedd4-2 by Sgk1 regulates epithelial Na(+) channel cell surface expression. EMBO J. 2001; 20: 7052-7059] and wild-type Sglt1 [Hediger M A, Coady M J, Ikeda T S, Wright E M. Expression cloning and cDNA sequencing of the Na^+/glucose co-transporter. Nature. 1987; 330: 379-381] were synthesized in vitro [Wagner C A, Friedrich B, Setiawan I, Lang F, Bröer S: The use of Xenopus laevis oocytes for the functional characterization of heterologously expressed membrane proteins. Cell Physiol Biochem 2000; 10: 1-12]. Dissection of the Xenopus laevis ovaries, and collection and treatment of the oocytes, have already been described in detail [Wagner C A, Friedrich B, Setiawan I, Lang F, Broer S: The use of Xenopus laevis oocytes for the functional characterization of heterologously expressed membrane proteins. Cell Physiol Biochem 2000; 10: 1-12]. The oocytes were injected with 5 ng of human sglt1, 7.5 ng of human sgk1, ^K127Nsgk1, ^S422Dsgk1, sgk3, PKB or ^T308D,S473DPKB, and/or with 5 ng of Xenopus nedd4-2. Control oocytes were injected with water. Electrophysiological experiments were carried out at room temperature for 3 days after the respective cRNAs had been injected. The currents which were induced by the extracellular administration of 20 mM or 5 mM glucose were measured using a two-electrode voltage clamp [Wagner C A, Friedrich B, Setiawan I, Lang F, Broer S: The use of Xenopus laevis oocytes for the functional characterization of heterologously expressed membrane proteins. Cell Physiol Biochem 2000; 10: 1-12] and taken as a measure of the glucose transport. The data were filtered at 10 Hz and analyzed using a MacLab Digital to Analog Converter and corresponding software (AD Instruments, Castle Hill, Australia). The control bath solution (ND 96) contained 96 mM NaCl, 2 mM KCl, 1.8 mM CaCl2, 1 mM MgCl2 and 5 mM HEPES, pH 7.4. All the substances were used at the stated concentrations. The final solutions were titrated with HCl or NaOH to the stated pH or pH 7.4. The flow rate of the superfusion solution was 20 ml/min and achieved complete change of solution within 10 s.
For the calculations, the data were quoted as arithmetic means±SEM. n is the number of oocytes investigated. All the experiments were carried out in at least three different groups of oocytes. Qualitatively similar data were obtained in all the repeats. The results were tested for significant differences using Student's t test. Only results giving P<0.05 were made use of as being statistically significant.
For orientation: Two-electrode voltage clamp is typically applied to oocytes expressing channels or transporters.

Setting [1] is: coexpressed with Sglt1 and Nedd4-2.
The mark [2] stands for this setting: further series of experiments (FIG. 5, procedure as in FIG. 4), coexpressed with Sglt1.
[3] abbreviates: 20 mM glucose, coexpressed with Sglt1, increase vs oocytes expressing Sglt1 on its own.
Setting [4] is: 20 mM glucose, coexpressed with Sglt1 and Nedd4-2.
[5] abbreviates: 5 mM glucose, coexpressed with Sglt1 and Nedd4-2.
[6] abbreviates: 5 mM glucose, coexpressed with Sglt1 (FIG. 4).

As to “PKB: wild-type protein kinase B, expressed from injected cRNA”, the “stimulation of glucose transport by additional coexpression” value (“stimulation of glucose transport” for short) under setting [1] is 107±20%. Further, the “glucose-induced current increased by coexpression” value (shortened to “glucose-induced current increased”) under setting [2] came out at 101±18%.
Take “^T308D,S473DPKB: constitutively active protein kinase B mutant, expressed from injected cRNA”: the “glucose-induced current increased” value under setting [3] is listed as 117.4±15.8%. Moreover, the “glucose-induced current higher than in oocytes expressing Sglt1 on its own” value (“glucose-induced current higher than” below) under setting [4] worked out at 106.5±18.2%. The “effect on currents induced by glucose (in words)” value (“effect on currents induced” for short) (20 mM glucose, figure legends) was “stimulated the currents and reversed the effect of Nedd4-2”.

B1: Sgk2: isoform of Sgk, coexpressed in oocytes (protein, UniProt Q9HBY8 1-367, looked up)
Serine/threonine-protein …: MNSSPAGTPSPQPSRANGNINLGPSANPNAQPTDFDFLKVIGKGNYGKVLLAKRKSDGAFYAVKVLQKKSILKKKEQSHIMAERSVLLKNVRHPFLVGLRYSFQTPEKLYFVLDYVNGGELFFHLQRERRFLEPRARFYAAEVASAIGYLHSLNIIYRDLKPENILLDCQGHVVLTDFGLCKEGVEPEDTTSTFCGTPEYLAPEVLRKEPYDRAVDWWCLGAVLYEMLHGLPPFYSQDVSQMYENILHQPLQIPGGRTVAACDLLQSLLHKDQRQRLGSKADFLEIKNHVFFSPINWDDLYHKRLTPPFNPNVTGPADLKHFDPEFTQEAVSKSIGCTPDTVASSSGASSAFLGFSYAPEDDDILDC
On to B1, for which, under setting [1], the “stimulation of glucose transport” value was “no significant effect”. Further, the “glucose-induced current increased” value under setting [2] is “no statistically significant effect”.

B2: Sgk1: wild-type serum- and glucocorticoid-dependent kinase 1, expressed from injected human sgk1 cRNA (protein, UniProt O00141 1-431, looked up)
Serine/threonine-protein …: MTVKTEAAKGTLTYSRMRGMVAILIAFMKQRRMGLNDFIQKIANNSYACKHPEVQSILKISQPQEPELMNANPSPPPSPSQQINLGPSSNPHAKPSDFHFLKVIGKGSFGKVLLARHKAEEVFYAVKVLQKKAILKKKEEKHIMSERNVLLKNVKHPFLVGLHFSFQTADKLYFVLDYINGGELFYHLQRERCFLEPRARFYAAEIASALGYLHSLNIVYRDLKPENILLDSQGHIVLTDFGLCKENIEHNSTTSTFCGTPEYLAPEVLHKQPYDRTVDWWCLGAVLYEMLYGLPPFYSRNTAEMYDNILNKPLQLKPNITNSARHLLEGLLQKDRTKRLGAKDDFMEIKSHVFFSLINWDDLINKKITPPFNPNVSGPNDLRHFDPEFTEEPVPNSIGKSPDSVLVTASVKEAAEAFLGFSYAPPTDSFL
Take B2: under setting [5], the “glucose-induced current more than in oocytes injected with Sglt1 and Nedd4-2 mRNA” value came to 126±23%; the “glucose-induced current more than in oocytes only injected with Sglt1” value was determined as 61±21%. In addition, the glucose-induced current (5 mM glucose, coexpressed with Sglt1 and Nedd4-2 (FIG. 4)) is on record as 60.5±9.9 nA. Moreover, the “glucose-induced current increased” value under setting [3] worked out at 81.3±19.0%. Under setting [4], the “glucose-induced current higher than” value is 34.8±11.8%. Also, for the setting “20 mM glucose, figure legends”, the “effect on currents induced” value was “stimulated the currents and reversed the effect of Nedd4-2”.

B3: ^K127NSgk1: inactive Sgk1 mutant, expressed from injected cRNA (protein, UniProt O00141 1-431, looked up, variant K127N)
Serine/threonine-protein …: B2 Serine/threonine-protein … with K127N
Consider B3, for which, where the note is “20 mM glucose, coexpressed with Sglt1, signed change vs Sglt1 alone”, the “change of substrate-induced current” value is listed as −2.0±5.3%. Also, under setting [4], the “glucose-induced current lower than in oocytes expressing Sglt1 on its own” value is on record as 54.9±9.7%.

B4: ^S422DSgk1: constitutively active Sgk1 mutant (serine 422 to aspartate), expressed from injected cRNA (protein, UniProt O00141 1-431, looked up, variant S422D)
Serine/threonine-protein …: B2 Serine/threonine-protein … with S422D
For the molecule B4, the “glucose-induced current (Iglc)” value under setting [6] is on record as 65.4±10.6 nA. For the same molecule, under setting [6], the “increase of Iglc by coexpression” value came to 77±23%. In addition, the “effect on currents induced” value by setting is: (5 mmol glucose, FIG. 4 legend) “significantly increased”; (20 mM glucose, figure legends) “stimulated the currents and reversed the effect of Nedd4-2”. The “glucose-induced current increased” value came to 72.4±9.1% under setting [3] and 55±12% under setting [2]. The “glucose-induced current higher than” value under setting [4] is 59.2±19.8%. For the same molecule, the “stimulation of glucose transport” value under setting [1] is on record as 48±11%.

B5: Sgk3: wild-type Sgk isoform 3, expressed from injected cRNA (protein, UniProt Q96BR1 1-496, looked up)
Serine/threonine-protein …: MQRDHTMDYKESCPSVSIPSSDEHREKKKRFTVYKVLVSVGRSEWFVFRRYAEFDKLYNTLKKQFPAMALKIPAKRIFGDNFDPDFIKQRRAGLNEFIQNLVRYPELYNHPDVRAFLQMDSPKHQSDPSEDEDERSSQKLHSTSQNINLGPSGNPHAKPTDFDFLKVIGKGSFGKVLLAKRKLDGKFYAVKVLQKKIVLNRKEQKHIMAERNVLLKNVKHPFLVGLHYSFQTTEKLYFVLDFVNGGELFFHLQRERSFPEHRARFYAAEIASALGYLHSIKIVYRDLKPENILLDSVGHVVLTDFGLCKEGIAISDTTTTFCGTPEYLAPEVIRKQPYDNTVDWWCLGAVLYEMLYGLPPFYCRDVAEMYDNILHKPLSLRPGVSLTAWSILEELLEKDRQNRLGAKEDFLEIQNHPFFESLSWADLVQKKIPPPFNPNVAGPDDIRNFDTAFTEETVPYSVCVSSDYSIVNASVLEADDAFVGFSYAPPSEDLFL
With B5, the “glucose-induced current increased” value is, setting by setting: under setting [3], 123.6±15.0%; under setting [2], 117±16%. Further, under setting [4], the “glucose-induced current higher than” value came out at 112.4±19.4%. Also, where the note is “20 mM glucose, figure legends”, the “effect on currents induced” value was “stimulated the currents and reversed the effect of Nedd4-2”. Moreover, under setting [1], the “stimulation of glucose transport” value stood at 114±26%.
